The test system of this data set is Escherichia coli TOP10. The data set is described as follows: shrunken log2 fold change of peptide-encoding DNA abundance (4.5 h post-induction vs induction); higher = less antimicrobial activity (less host growth inhibition). Particulars: time post-induction: 4.5 h; library: site-saturation at positions 5, 18, 19, 20.
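Further: peptides expressed intracellularly from a pBAD plasmid library in pooled LB shake-flask culture, induced with 0.3% L-arabinose, DNA abundance read by NGS, three biological replicates, DESeq2 with apeglm shrinkage.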

With RRIRDRPPRLPRPRPRPNKKPRP, the “shrunken log2 fold change” value was -0.117.
Then RRIRFRPPRLPRPRPRPIVKPRP, with -0.395.
As to RRIRGRPPRLPRPRPRPPTAPRP, the “shrunken log2 fold change” value is 1.01.
Under RRIRQRPPRLPRPRPRPCCKPRP stands -0.00783; under RRIRLRPPRLPRPRPRPNCFPRP, -0.0891.
RRIRDRPPRLPRPRPRPIQMPRP: the “shrunken log2 fold change” value came to 0.137.
Under RRIRWRPPRLPRPRPRPDPPPRP stands 0.575.
Under RRIRDRPPRLPRPRPRPTGIPRP stands 0.26; under RRIRHRPPRLPRPRPRPGKVPRP, -0.0067; under RRIRPRPPRLPRPRPRPPIGPRP, 0.287.
Take RRIRYRPPRLPRPRPRPMFYPRP: the “shrunken log2 fold change” value was -1.04.
Turning to RRIRCRPPRLPRPRPRPPCCPRP, the “shrunken log2 fold change” value is 0.021.
As to RRIRTRPPRLPRPRPRPAFEPRP, the “shrunken log2 fold change” value was determined as 0.219.
As to RRIRTRPPRLPRPRPRPTLHPRP, the “shrunken log2 fold change” value was -0.126.
Then RRIRGRPPRLPRPRPRPYFIPRP, with -0.336; and RRIRRRPPRLPRPRPRPGRRPRP, with 0.456; and RRIRLRPPRLPRPRPRPHWCPRP, with -0.0751.
On to RRIRVRPPRLPRPRPRPLKGPRP, for which the “shrunken log2 fold change” value was -0.211.
Regarding RRIRKRPPRLPRPRPRPYAQPRP, the “shrunken log2 fold change” value was -0.00925.
Turning to RRIRVRPPRLPRPRPRPKYIPRP, the “shrunken log2 fold change” value is -0.821.
Then RRIRQRPPRLPRPRPRPDSMPRP, with -0.17; and RRIRIRPPRLPRPRPRPGCGPRP, with 0.349.
On to RRIRYRPPRLPRPRPRPQKAPRP, for which the “shrunken log2 fold change” value was -0.0304.
Consider RRIRERPPRLPRPRPRPFPPPRP, for which the “shrunken log2 fold change” value was -0.38.
Take RRIRFRPPRLPRPRPRPVCKPRP: the “shrunken log2 fold change” value was -0.139.
Consider RRIRIRPPRLPRPRPRPKDVPRP, for which the “shrunken log2 fold change” value is -0.141.
Under RRIRHRPPRLPRPRPRPGMSPRP stands -0.0653.
Consider RRIRPRPPRLPRPRPRPMAQPRP, for which the “shrunken log2 fold change” value came to 0.177.
Under RRIRNRPPRLPRPRPRPKLRPRP stands 0.00281.
With RRIRRRPPRLPRPRPRPRFYPRP, the “shrunken log2 fold change” value was -0.237.
For RRIRNRPPRLPRPRPRPLKSPRP, the “shrunken log2 fold change” value is -0.258.
Under RRIRDRPPRLPRPRPRPEVHPRP stands 0.168; under RRIRDRPPRLPRPRPRPNGNPRP, -0.169.
RRIRIRPPRLPRPRPRPPFGPRP: the “shrunken log2 fold change” value came out at 0.255.
Turning to RRIRMRPPRLPRPRPRPKSGPRP, the “shrunken log2 fold change” value is -0.101.
For the sequence RRIRIRPPRLPRPRPRPGEVPRP, the “shrunken log2 fold change” value is 0.0961.
As to RRIRSRPPRLPRPRPRPHLSPRP, the “shrunken log2 fold change” value was -0.0791.
Under RRIRYRPPRLPRPRPRPDVFPRP stands -0.0152.
As to RRIRTRPPRLPRPRPRPLVWPRP, the “shrunken log2 fold change” value amounted to 0.44.
Regarding RRIRMRPPRLPRPRPRPWEPPRP, the “shrunken log2 fold change” value amounted to 0.127.
With RRIRPRPPRLPRPRPRPGHSPRP, the “shrunken log2 fold change” value is -0.0921.
For RRIRWRPPRLPRPRPRPLVTPRP, the “shrunken log2 fold change” value came to 0.687.
Then RRIRFRPPRLPRPRPRPQGAPRP, with -0.0798; and RRIRLRPPRLPRPRPRPDGIPRP, with -0.0391.
Regarding RRIRSRPPRLPRPRPRPGTDPRP, the “shrunken log2 fold change” value was -0.0659.
Then RRIRARPPRLPRPRPRPHAVPRP, with 0.123; and RRIRLRPPRLPRPRPRPMGCPRP, with 0.031.
Consider RRIRYRPPRLPRPRPRPCQQPRP, for which the “shrunken log2 fold change” value is -0.163.
As to RRIRGRPPRLPRPRPRPHQNPRP, the “shrunken log2 fold change” value was determined as 0.58.
On to RRIRTRPPRLPRPRPRPGFQPRP, for which the “shrunken log2 fold change” value was -0.0547.
For the sequence RRIRMRPPRLPRPRPRPDNDPRP, the “shrunken log2 fold change” value was 1.41.
Then RRIRARPPRLPRPRPRPRDVPRP, with 0.261.
RRIRPRPPRLPRPRPRPNFVPRP: the “shrunken log2 fold change” value is -0.0668.
Under RRIRGRPPRLPRPRPRPSPNPRP stands 0.244; under RRIRGRPPRLPRPRPRPAHIPRP, 0.0667; under RRIRYRPPRLPRPRPRPCLIPRP, -0.00819.
For the sequence RRIRKRPPRLPRPRPRPGYWPRP, the “shrunken log2 fold change” value was -0.00764.
Consider RRIRDRPPRLPRPRPRPHLYPRP, for which the “shrunken log2 fold change” value was determined as 0.0039.
As for RRIRKRPPRLPRPRPRPEGIPRP, the “shrunken log2 fold change” value was -0.0332.
Then RRIRGRPPRLPRPRPRPSVSPRP, with 0.166; and RRIRMRPPRLPRPRPRPNVAPRP, with 0.099.
Take RRIRWRPPRLPRPRPRPCWVPRP: the “shrunken log2 fold change” value is -0.116.
Under RRIRPRPPRLPRPRPRPQGAPRP stands 0.0965; under RRIRVRPPRLPRPRPRPIKDPRP, 0.0334; under RRIRHRPPRLPRPRPRPAFVPRP, 0.113.
As for RRIRNRPPRLPRPRPRPHMMPRP, the “shrunken log2 fold change” value is -0.326.
Turning to RRIRTRPPRLPRPRPRPLWHPRP, the “shrunken log2 fold change” value is -0.221.
In the case of RRIRGRPPRLPRPRPRPDMWPRP, the “shrunken log2 fold change” value amounted to 0.132.
Then RRIRRRPPRLPRPRPRPCDYPRP, with -0.489.
As for RRIRDRPPRLPRPRPRPYPPPRP, the “shrunken log2 fold change” value is -0.426.
Regarding RRIRFRPPRLPRPRPRPQLAPRP, the “shrunken log2 fold change” value is 0.0569.
Regarding RRIRWRPPRLPRPRPRPVMQPRP, the “shrunken log2 fold change” value worked out at 0.294.
Regarding RRIRLRPPRLPRPRPRPPTSPRP, the “shrunken log2 fold change” value was 0.493.
As to RRIRDRPPRLPRPRPRPSMMPRP, the “shrunken log2 fold change” value is 0.636.
For the sequence RRIRLRPPRLPRPRPRPHEPPRP, the “shrunken log2 fold change” value was -0.0213.
Consider RRIRLRPPRLPRPRPRPAGHPRP, for which the “shrunken log2 fold change” value was -0.0387.
As to RRIRDRPPRLPRPRPRPFRAPRP, the “shrunken log2 fold change” value was -0.0871.
Then RRIRCRPPRLPRPRPRPIEMPRP, with -0.0735; and RRIRIRPPRLPRPRPRPKYMPRP, with -0.566; and RRIRHRPPRLPRPRPRPADSPRP, with -0.039.
In the case of RRIRPRPPRLPRPRPRPFQCPRP, the “shrunken log2 fold change” value is -0.0376.
Then RRIRPRPPRLPRPRPRPKALPRP, with 0.461; and RRIRHRPPRLPRPRPRPNCQPRP, with 0.358; and RRIRARPPRLPRPRPRPNKYPRP, with -0.449.
Consider RRIRTRPPRLPRPRPRPGVRPRP, for which the “shrunken log2 fold change” value worked out at 0.272.
Take RRIRHRPPRLPRPRPRPSAKPRP: the “shrunken log2 fold change” value was -0.324.
Take RRIRPRPPRLPRPRPRPDCIPRP: the “shrunken log2 fold change” value is -0.391.
Under RRIRFRPPRLPRPRPRPDCDPRP stands -0.147.
Turning to RRIRGRPPRLPRPRPRPCTWPRP, the “shrunken log2 fold change” value was 0.228.
Turning to RRIRTRPPRLPRPRPRPQNEPRP, the “shrunken log2 fold change” value is -0.276.
With RRIRPRPPRLPRPRPRPARGPRP, the “shrunken log2 fold change” value was 0.606.
With RRIRGRPPRLPRPRPRPVSYPRP, the “shrunken log2 fold change” value is 0.291.
Consider RRIRKRPPRLPRPRPRPWPFPRP, for which the “shrunken log2 fold change” value was 0.0352.
Consider RRIRIRPPRLPRPRPRPYIMPRP, for which the “shrunken log2 fold change” value was -1.15.
As for RRIRRRPPRLPRPRPRPEGAPRP, the “shrunken log2 fold change” value came to 1.05.
RRIRWRPPRLPRPRPRPFVGPRP: the “shrunken log2 fold change” value was -0.166.
For RRIRGRPPRLPRPRPRPFFPPRP, the “shrunken log2 fold change” value was 0.154.
Take RRIRGRPPRLPRPRPRPYSGPRP: the “shrunken log2 fold change” value was -0.0221.
With RRIRVRPPRLPRPRPRPYATPRP, the “shrunken log2 fold change” value was -0.124.
Then RRIRCRPPRLPRPRPRPLYGPRP, with -0.914; and RRIRHRPPRLPRPRPRPNAEPRP, with -0.0088; and RRIRFRPPRLPRPRPRPRFRPRP, with -0.0973.
As for RRIRYRPPRLPRPRPRPNQRPRP, the “shrunken log2 fold change” value was -0.181.
RRIRSRPPRLPRPRPRPHDWPRP: the “shrunken log2 fold change” value is -0.323.
On to RRIRNRPPRLPRPRPRPQIIPRP, for which the “shrunken log2 fold change” value was -0.106.
Turning to RRIRRRPPRLPRPRPRPFTYPRP, the “shrunken log2 fold change” value was -0.22.
Under RRIRSRPPRLPRPRPRPHTRPRP stands -0.453; under RRIRMRPPRLPRPRPRPFPMPRP, 0.237; under RRIRQRPPRLPRPRPRPSVHPRP, -0.276.
RRIRNRPPRLPRPRPRPDRQPRP: the “shrunken log2 fold change” value is -0.0285.
Turning to RRIRKRPPRLPRPRPRPAWRPRP, the “shrunken log2 fold change” value worked out at 1.18.
As for RRIRPRPPRLPRPRPRPAPMPRP, the “shrunken log2 fold change” value worked out at 0.284.
On to RRIRMRPPRLPRPRPRPMWKPRP, for which the “shrunken log2 fold change” value was -0.00141.
Turning to RRIRSRPPRLPRPRPRPGRVPRP, the “shrunken log2 fold change” value amounted to 0.162.
Consider RRIRTRPPRLPRPRPRPNEFPRP, for which the “shrunken log2 fold change” value turned out to be 0.0177.
RRIRCRPPRLPRPRPRPSCLPRP: the “shrunken log2 fold change” value is -0.499.
For the sequence RRIRERPPRLPRPRPRPWGGPRP, the “shrunken log2 fold change” value is 0.267.
On to RRIRMRPPRLPRPRPRPNRVPRP, for which the “shrunken log2 fold change” value was -0.144.
Regarding RRIRRRPPRLPRPRPRPPQIPRP, the “shrunken log2 fold change” value worked out at 0.908.
As for RRIRMRPPRLPRPRPRPWPPPRP, the “shrunken log2 fold change” value is 1.09.
Consider RRIRRRPPRLPRPRPRPDAVPRP, for which the “shrunken log2 fold change” value was 0.462.
Regarding RRIRMRPPRLPRPRPRPLTPPRP, the “shrunken log2 fold change” value worked out at 1.13.
For RRIRIRPPRLPRPRPRPRGTPRP, the “shrunken log2 fold change” value was determined as 0.277.
With RRIRIRPPRLPRPRPRPKMQPRP, the “shrunken log2 fold change” value is -0.293.
Then RRIRWRPPRLPRPRPRPKCFPRP, with -0.076.

Values taken from the supplement of paper PMC9112550, “Optimization of the antimicrobial peptide Bac7 by deep mutational scanning” (BMC Biology, 2022).
